Laboratory results taken from US20050009749A1.

Target: β amyloid (Aβ) 1-40 peptide
Assay: cell-based or functional assay

Chain of β amyloid (Aβ) 1-40 peptide (peptide, as listed by the source): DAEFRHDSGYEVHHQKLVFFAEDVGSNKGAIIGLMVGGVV

inhibition of Aβ aggregation, Congo red assay | inhibition of Aβ aggregation, thioflavin-T fluorescence assay | Substance | protection of SHSY-5Y neuronal cells from Aβ-induced death, MTT assay (% more surviving cells than control)
93.2 % inhibition | 97 % inhibition | AABA protein (β amyloid aggregation blocking activity protein) from Streptomyces sp. KK565 | –
– | – | AABA protein (β amyloid aggregation blocking activity protein) from Streptomyces sp. KK565 (enzyme) | 20
